Changes are numbered by the printed parent chain. Names may count otherwise.
B1: H1.135_L1 (antibody, V domains shown)
VH: EVQLVESGGGLVQPGGSLRLSCAASGFTFSSFGMHWVRQAPGKGLEWVSYISSGSSIIYYADSVKGRFTISRDNAKNSLYLQMNSLRAEDTAVYYCARGGRVVWSPDYWGQGTLVTVSS
VL: DIVMTQSPDSLAVSLGERATINCKSSQSLLNSGNQKNYLTWYQQKPGQPPKLLIYWASTRESGVPDRFTGSGSGTDFTLTISSLQAEDVAVYYCQNDYSYPFTFGSGTKLEIKR
notes: also called VH-L110V; Kabat 98
B2: H1.146_L1 (antibody, V domains shown)
VH: B1 VH with V102L, V103Y
VL: B1 VL
notes: also called VH-V111Y; Kabat 99
B3: mAb C H1.132_L1 (antibody, V domains shown)
VH: B1 VH with R101W, V102L
VL: B1 VL
notes: copies: 2 + 2
B4: H1.143_L1 (antibody, V domains shown)
VH: B1 VH with V102L, V103I
VL: B1 VL
notes: also called VH-V111I; Kabat 99
B5: H1.137_L1 (antibody, V domains shown)
VH: B1 VH with V102W
VL: B1 VL
notes: also called VH-L110W; Kabat 98
B6: H1.144_L1 (antibody, V domains shown)
VH: B1 VH with V102L, V103L
VL: B1 VL
notes: also called VH-V111L; Kabat 99
B7: H1.138_L1 (antibody, V domains shown)
VH: B1 VH with V102D
VL: B1 VL
notes: also called VH-L110D; Kabat 98
B8: H1.136_L1 (antibody, V domains shown)
VH: B1 VH with V102Y
VL: B1 VL
notes: also called VH-L110Y; Kabat 98
B9: H1.142_L1 (antibody, V domains shown)
VH: B1 VH with V102L, V103T
VL: B1 VL
notes: also called VH-V111T; Kabat 99
B10: H1.145_L1 (antibody, V domains shown)
VH: B1 VH with V102L, V103A
VL: B1 VL
notes: also called VH-V111A; Kabat 99
B11: H1.139_L1 (antibody, V domains shown)
VH: B1 VH with V102A
VL: B1 VL
notes: also called VH-L110A; Kabat 98
B12: H1.141_L1 (antibody, V domains shown)
VH: B1 VH with V102K
VL: B1 VL
notes: also called VH-L110K; Kabat 98
B13: H1_L1.23 (antibody, V domains shown)
VH: B1 VH with V102L
VL: B1 VL with N34D
notes: also called VL-N34D; Kabat 28
B14: H1_L1.22 (antibody, V domains shown)
VH: B1 VH with V102L
VL: B1 VL with G33Y
notes: also called VL-G33Y; Kabat 27f
B15: H1_L1.24 (antibody, V domains shown)
VH: B1 VH with V102L
VL: B1 VL with N34H
notes: also called VL-N34H; Kabat 28

Target: T1, human PD-1-His (human, UniProt Q15116 25-167, limits assumed)
T1 construct: Antigen of the Octet assays; not shown: His tag
T1 sequence (Q15116 25-167 limits assumed): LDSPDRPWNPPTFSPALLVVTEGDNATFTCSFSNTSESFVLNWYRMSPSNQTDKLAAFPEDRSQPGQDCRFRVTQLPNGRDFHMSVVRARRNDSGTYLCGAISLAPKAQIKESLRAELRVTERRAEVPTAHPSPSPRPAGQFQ
Test: Octet

| Kd [nM] | koff [s⁻¹] | kon [M⁻¹ s⁻¹] | Binder |
| --- | --- | --- | --- |
| 46.7 | 0.00685 | 147000 | B1 |
| 102 | 0.0157 | 155000 | B2 |
| 9.63 | 0.00218 | 227000 | B3 |
| 35.6 | 0.00633 | 178000 | B4 |
| 32.6 | 0.0056 | 172000 | B5 |
| 130 | 0.0174 | 134000 | B6 |
| 116 | 0.0128 | 110000 | B7 |
| 54.5 | 0.00863 | 158000 | B8 |
| 88 | 0.0118 | 134000 | B9 |
| 110 | 0.0177 | 161000 | B10 |
| 98.9 | 0.011 | 111000 | B11 |
| 118 | 0.0132 | 112000 | B12 |

Target: T1, human PD-1-His
Test: Octet
Remark: another data set of the same source

| Kd [nM] | koff [s⁻¹] | kon [M⁻¹ s⁻¹] | Binder |
| --- | --- | --- | --- |
| 57.6 | 0.006 | 104000 | B13 |
| 271 | 0.0269 | 99100 | B14 |
| 200 | 0.0183 | 91600 | B15 |
